Test results: US20180044434A1

Legend:
[1] = target: T1, Ala mutant having 3-amino acid substitution, SEQ ID NO: 46; assay: ELISA, coated peptide
T1 sequence (peptide): EENMDDAAAQDEMEIGY

[2] = target: T2, Ala mutant of TA0096, SEQ ID NO: 32; assay: ELISA, coated peptide
T2 sequence (peptide): EENMDAQWMQDEMEIGY

## anti-dinitrophenyl (DNP) antibody (negative control)
[1]
  OD 490/630 nm: 0.052
[2]
  OD 490/630 nm: 0.012
